Series [1] addresses T1, GST-ZFDBD-ZBTB2 (human, UniProt Q8N680 254-468).
T1 sequence: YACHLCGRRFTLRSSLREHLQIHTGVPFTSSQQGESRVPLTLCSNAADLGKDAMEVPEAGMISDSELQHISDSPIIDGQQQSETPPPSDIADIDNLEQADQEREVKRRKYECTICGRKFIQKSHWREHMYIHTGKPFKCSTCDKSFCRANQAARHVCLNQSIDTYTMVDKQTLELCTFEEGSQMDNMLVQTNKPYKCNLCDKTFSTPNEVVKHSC
Briefly: EMSA.

Series [2] concerns the target Sp1 (recombinant) (UniProt P08047 1-785). Briefly: EMSA.

Sequence of Sp1 (recombinant) (P08047 whole entry): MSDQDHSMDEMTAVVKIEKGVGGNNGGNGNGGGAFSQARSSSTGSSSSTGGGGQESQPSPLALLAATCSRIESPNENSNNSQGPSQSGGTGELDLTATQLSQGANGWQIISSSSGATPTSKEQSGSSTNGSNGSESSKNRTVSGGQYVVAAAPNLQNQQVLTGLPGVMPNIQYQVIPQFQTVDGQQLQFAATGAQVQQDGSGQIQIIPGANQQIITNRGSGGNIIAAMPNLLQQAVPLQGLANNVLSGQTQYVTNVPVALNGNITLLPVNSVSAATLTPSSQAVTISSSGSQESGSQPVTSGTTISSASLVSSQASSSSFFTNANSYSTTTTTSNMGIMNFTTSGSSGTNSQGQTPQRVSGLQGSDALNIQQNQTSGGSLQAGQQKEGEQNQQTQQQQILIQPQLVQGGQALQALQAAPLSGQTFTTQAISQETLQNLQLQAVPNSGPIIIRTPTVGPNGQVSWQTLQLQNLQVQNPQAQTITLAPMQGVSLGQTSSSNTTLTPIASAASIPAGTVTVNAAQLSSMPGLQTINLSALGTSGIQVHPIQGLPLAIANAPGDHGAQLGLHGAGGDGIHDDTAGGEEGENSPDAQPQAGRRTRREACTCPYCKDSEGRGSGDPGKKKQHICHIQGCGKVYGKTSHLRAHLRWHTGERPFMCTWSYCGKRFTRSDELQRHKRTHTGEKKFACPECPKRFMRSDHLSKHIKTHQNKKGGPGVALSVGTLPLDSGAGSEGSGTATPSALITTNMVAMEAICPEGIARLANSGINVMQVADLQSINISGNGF

B1: GC-box #3 EMSA probe (dsDNA)
DNA 1: GATCTTTCCCTGCGCGGGGCGGGCGGCCGCAGCCC
DNA 2: GGGCTGCGGCCGCCCGCCCCGCGCAGGGAAAGATC
With B1, the binding result in series [1] and in series [2] was “binds” each time.
